This note sets out measurements from IntAct's records for PubMed 19415803.

The labels stand for the following.
B1: DNA polymerase III subunit tau (Bacillus subtilis), P09122 (parent)
chain: MSYQALYRVFRPQRFEDVVGQEHITKTLQNALLQKKFSHAYLFSGPRGTGKTSAAKIFAKAVNCEHAPVDEPCNECAACKGITNGSISDVIEIDAASNNGVDEIRDIRDKVKFAPSAVTYKVYIIDEVHMLSIGAFNALLKTLEEPPEHCIFILATTEPHKIPLTIISRCQRFDFKRITSQAIVGRMNKIVDAEQLQVEEGSLEIIASAADGGMRDALSLLDQAISFSGDILKVEDALLITGAVSQLYIGKLAKSLHDKNVSDALETLNELLQQGKDPAKLIEDMIFYFRDMLLYKTAPGLEGVLEKVKVDETFRELSEQIPAQALYEMIDILNKSHQEMKWTNHPRIFFEVAVVKICQTSHQSAADLPEVDMLMKKIQQLEQEVERLKTTGIKAAAESPKKEAPRVPKGGKSNYKAPVGRIHEILKEATRPDLDLLRNSWGKLLAHLKQQNKVSHAALLNDSEPVAAGSAAFVLKFKYEIHCKMVAEDNNGVRTNLEQILESMLGKRMDLIGVPEAQWGKIREEFLEDHQQENEGSNEPAEEDPLIAEAKKLVGADLIEIKD
partner: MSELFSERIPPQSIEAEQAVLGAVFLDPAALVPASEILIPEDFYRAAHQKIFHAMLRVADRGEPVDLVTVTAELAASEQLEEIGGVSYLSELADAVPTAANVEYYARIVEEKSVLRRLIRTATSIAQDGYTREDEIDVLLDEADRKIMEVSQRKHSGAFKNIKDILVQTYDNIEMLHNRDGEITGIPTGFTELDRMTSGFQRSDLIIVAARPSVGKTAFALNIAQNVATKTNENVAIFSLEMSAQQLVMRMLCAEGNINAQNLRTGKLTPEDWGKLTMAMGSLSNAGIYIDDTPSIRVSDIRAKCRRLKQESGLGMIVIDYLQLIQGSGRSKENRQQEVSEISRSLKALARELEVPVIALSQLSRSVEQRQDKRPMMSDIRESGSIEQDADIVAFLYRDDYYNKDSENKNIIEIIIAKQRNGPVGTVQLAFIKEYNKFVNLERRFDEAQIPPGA

The variants in the assay derive from B1. The settings on record: with dnab_geose dnaB.
In the case of D510S, the “effect of a mutation on the interaction” value is “decreasing interaction strength”. Consider W519R, for which the “effect of a mutation on the interaction” value was “decreasing interaction strength”. In the case of F473L, the “effect of a mutation on the interaction” value is on record as “decreasing interaction strength”. For the variant G492R, the “effect of a mutation on the interaction” value is recorded as “decreasing interaction strength”.

For the variant C483S, the “effect of a mutation on the interaction” value is “decreasing interaction strength”. Regarding A550V, the “effect of a mutation on the interaction” value is “decreasing interaction strength”.
